Results: patent publication US12312417B2, “Binding proteins 1” (Nucleus Therapeutics Pty. Ltd., priority 2017, dated 2025)

Assays:
Assay type in all cases: cell-based
[1] = system: HDR-proficient DLD1 cells; assay: Cell death in HDR-proficient cells, di-scFv with PARP inhibitor; details: 5 nM olaparib, 10 μM di-scFv, or both
Experimental: Homology-directed repair (HDR) deficient BRCA2-DLD1 cells and PTEN-U251 cells were treated with control, 5 nM olaparib, 10 μM di-scFv, or 10 μM di-scFv+5 nM olaparib. Surviving fraction was determined by colony formation assay.
It was then determined whether the combination of di-scFv and olaparib is simply universally cytotoxic, regardless of DNA repair status. To evaluate this possibility, HDR-proficient DLD1 cells were treated with the above regimen to confirm selectivity of combination therapy to HDR-deficient malignant cells.

DLD1 colon cancer cells = assay: Alkaline phosphatase-based survey of nuclear penetration; details: cells treated for one hour; right shift of histogram peak
Experimental: DLD1 colon cancer cells were treated with control media or each of the indicated variants for one hour. Cells were then washed, fixed, blocked with 1% BSA-TBST, and then probed with protein L for one hour. Cells were then washed and incubated with an anti-protein L primary antibody for one hour. After another round of washing cells were incubated with an alkaline phosphatase-conjugated secondary antibody for one hour. Finally, cells were washed and signal was developed by addition of NBT/BCIP. Dark stain indicates location of the variants.
Raw integrated density values reflecting nuclear alkaline phosphatase staining in the DLD1 cells from the experiment in FIG. 3 were obtained by analysis using ImageJ Boxplots of distributions of values are presented for each variant in FIG. 4.
Histogram plots of cell counts versus nuclear staining intensity (represented as reciprocal intensity in arbitrary units) are shown in FIG. 5.

[2] = system: PTEN-deficient U87 human glioma cells; assay: Cell viability by Trypan blue exclusion assay; details: 7 days after treatment; relative to control treated cells
Experimental: Cell viability of PTEN-deficient U87 human glioma cells was also assessed following treatment with control media or media containing Variants 10, 13, 15, or 16. Cell viability was determined 7 days after treatment using Trypan blue exclusion assay and by direct visualization of cell morphology by light microscopy.

[3] = system: BRCA2-proficient DLD1 colon cancer cells; assay: Cell viability by Trypan blue exclusion assay; details: 7 days later
Experimental: (§1) Next, a matched pair of BRCA2-proficient and deficient DLD1 colon cancer cells was treated with control media or media containing Variants 10, 13, 15, or 16. Cell viability was determined 7 days later by Trypan blue exclusion assay and by direct visualization of cell morphology by light microscopy. […] Representative light microscope images shown the changes in morphology in the BRCA2-deficient cancer cells treated with the variants are shown in FIG. 10, Panel A. Quantitative analysis of the cell survival by Trypan blue exclusion assay is shown in FIG. 10, Panel B.

[4] = system: BRCA2-deficient DLD1 colon cancer cells; assay: Cell viability by Trypan blue exclusion assay; details: 7 days later
Experimental: as §1

[5] = system: PTEN-deficient U251 human glioma cells; assay: Phospho-53BP1 foci accumulation (DNA damage); details: PTEN-deficient U251; twenty-four hours; vs control media
Experimental: A matched pair of PTEN-proficient and deficient U251 human glioma cells were treated with control media or media containing Variant 10, 11, 13, 15, or 16 for twenty-four hours. Cells were then washed, fixed, blocked, and then probed with an anti-phospho-53BP1 antibody overnight. Cells were then washed and incubated with an AlexaFluor555-conjugated secondary antibody. Finally, cells were washed, counterstained with DAPI, and visualized under a fluorescence microscope. Images were saved and evaluated by CellProfiler to determine mean number of phospho-53BP1 foci per cell.
A matched pair of BRCA2-proficient and deficient DLD1 colon cancer cells and PTEN-proficient and deficient U251 human glioma cells were treated with control media or media containing 10 μM di-scFv variant 13 (SEQ ID NO: 41), 5 nM olaparib, or combination treatment.

Molecule	cell death [1]	nuclear penetration relative to the yeast prototype (histogram of cell counts versus nuclear staining intensity) (DLD1 colon cancer cells)	cell viability [2]	cell viability / toxicity [3]	cell viability / toxicity [4]	mean number of phospho-53BP1 foci per cell [5]
O=C(c1cc(Cc2n[nH]c(=O)c3ccccc23)ccc1F)N1CCN(C(=O)C2CC2)CC1 [olaparib, reference compound]	remain resistant	–	–	–	–	–
Variant 12: cell penetrating anti-DNA humanized di-scFv, SEQ ID NO: 40 (protein, Variant 12) scFv: DIQMTQSPSSLSASVGDRVTITCRASKSVSTSSYSYMHWYQQKPGKAPKLLIKYASYLESGVPSRFSGSGSGTDFTLTISSLQPEDFATYYCQHSREFPWTFGQGTKVEIKRADAAPGGGGSGGGGSGGGGSEVQLVESGGGDVKPGGSLRLSCAASGFTFSNYGMHWVRQAPEKGLEWVSYISSSSSTIYYADSVKGRFTISRDNSKNTLYLQMNSLRAEDTAVYYCARRGLLLDYWGQGTTVTVSSASTKGPSVFPLAPLESSGSDIQMTQSPSSLSASVGDRVTITCRASKSVSTSSYSYMHWYQQKPGKAPKLLIKYASYLESGVPSRFSGSGSGTDFTLTISSLQPEDFATYYCQHSREFPWTFGQGTKVEIKRADAAPGGGGSGGGGSGGGGSEVQLVESGGGDVKPGGSLRLSCAASGFTFSNYGMHWVRQAPEKGLEWVSYISSSSSTIYYADSVKGRFTISRDNSKNTLYLQMNSLRAEDTAVYYCARRGLLLDYWGQGTTVTVSS	–	Most of the variants, other than variants 12 and 14, showed improved nuclear penetration	–	–	–	–
Variant 10: cell penetrating anti-DNA humanized di-scFv, SEQ ID NO: 38 (protein, Variant 10) scFv: DIQMTQSPSSLSASVGDRVTITCRASKSVSTSSYSYMHWYQQKPGKAPKLLIKYASYLESGVPSRFSGSGSGTDFTLTISSLQPEDFATYYCQHSREFPWTFGQGTKVEIKRADAAPGGGGSGGGGSGGGGSEVQLVESGGGLVQPGGSLRLSCAASGFTFSNYGMHWVRQAPGKGLEWVSYISSSSSTIYYADSVKGRFTISRDNAKNSLYLQMNSLRAEDTAVYYCARRGLLLDYWGQGTTVTVSSASTKGPSVFPLAPLESSGSDIQMTQSPSSLSASVGDRVTITCRASKSVSTSSYSYMHWYQQKPGKAPKLLIKYASYLESGVPSRFSGSGSGTDFTLTISSLQPEDFATYYCQHSREFPWTFGQGTKVEIKRADAAPGGGGSGGGGSGGGGSEVQLVESGGGLVQPGGSLRLSCAASGFTFSNYGMHWVRQAPGKGLEWVSYISSSSSTIYYADSVKGRFTISRDNAKNSLYLQMNSLRAEDTAVYYCARRGLLLDYWGQGTTVTVSS	–	–	reductions in cell viability	not toxic	killed by the variants	increased the number of foci
Variant 11: cell penetrating anti-DNA humanized di-scFv, SEQ ID NO: 39 (protein, Variant 11) scFv: DIQMTQSPSSLSASVGDRVTITCRASKSVSTSSYSYMHWYQQKPGKAPKLLIKYASYLESGVPSRFSGSGSGTDFTLTISSLQPEDFATYYCQHSREFPWTFGQGTKVEIKRADAAPGGGGSGGGGSGGGGSEVQLVESGGGVVQPGGSLRLSCAASGFTFSNYGMHWVRQAPEKGLEWVSYISSSSSTIYYADSVKGRFTISRDNSKNTLYLQMNSLRAEDTAVYYCARRGLLLDYWGQGTTVTVSSASTKGPSVFPLAPLESSGSDIQMTQSPSSLSASVGDRVTITCRASKSVSTSSYSYMHWYQQKPGKAPKLLIKYASYLESGVPSRFSGSGSGTDFTLTISSLQPEDFATYYCQHSREFPWTFGQGTKVEIKRADAAPGGGGSGGGGSGGGGSEVQLVESGGGVVQPGGSLRLSCAASGFTFSNYGMHWVRQAPEKGLEWVSYISSSSSTIYYADSVKGRFTISRDNSKNTLYLQMNSLRAEDTAVYYCARRGLLLDYWGQGTTVTVSS	–	–	–	–	–	increased the number of foci
Variant 14: cell penetrating anti-DNA humanized di-scFv, SEQ ID NO: 42 (protein, Variant 14) scFv: DIQMTQSPSSLSASLGDRATITCRASKTVSTSSYSYMHWYQQKPGQPPKLLIKYASYLESGVPSRFSGSGSGTDFTLTISSLQPEDAATYYCQHSREFPWTFGGGTKVEIKRADAAPGGGGSGGGGSGGGGSEVQLVESGGGVVQPGGSLRLSCAASGFTFSNYGMHWVRQAPEKGLEWVSYISSGSSTIYYADSVKGRFTISRDNSKNTLYLQMNSLRAEDTAVYYCARRGLLLDYWGQGTTVTVSSASTKGPSVFPLAPLESSGSDIQMTQSPSSLSASLGDRATITCRASKTVSTSSYSYMHWYQQKPGQPPKLLIKYASYLESGVPSRFSGSGSGTDFTLTISSLQPEDAATYYCQHSREFPWTFGGGTKVEIKRADAAPGGGGSGGGGSGGGGSEVQLVESGGGVVQPGGSLRLSCAASGFTFSNYGMHWVRQAPEKGLEWVSYISSGSSTIYYADSVKGRFTISRDNSKNTLYLQMNSLRAEDTAVYYCARRGLLLDYWGQGTTVTVSS	–	Most of the variants, other than variants 12 and 14, showed improved nuclear penetration	–	–	–	–
Variant 15: cell penetrating anti-DNA humanized di-scFv, SEQ ID NO: 43 (protein, Variant 15) scFv: DIQMTQSPSSLSASLGDRATITCRASKTVSTSSYSYMHWYQQKPGQPPKLLIKYASYLESGVPSRFSGSGSGTDFTLTISSLQPEDAATYYCQHSREFPWTFGGGTKVEIKRADAAPGGGGSGGGGSGGGGSEVQLVESGGGDVKPGGSLRLSCAASGFTFSNYGMHWVRQAPEKGLEWVSYISSGSSTIYYADSVKGRFTISRDNSKNTLYLQMNSLRAEDTAVYYCARRGLLLDYWGQGTTVTVSSASTKGPSVFPLAPLESSGSDIQMTQSPSSLSASLGDRATITCRASKTVSTSSYSYMHWYQQKPGQPPKLLIKYASYLESGVPSRFSGSGSGTDFTLTISSLQPEDAATYYCQHSREFPWTFGGGTKVEIKRADAAPGGGGSGGGGSGGGGSEVQLVESGGGDVKPGGSLRLSCAASGFTFSNYGMHWVRQAPEKGLEWVSYISSGSSTIYYADSVKGRFTISRDNSKNTLYLQMNSLRAEDTAVYYCARRGLLLDYWGQGTTVTVSS	–	notable right shift and narrowing of distributions	reductions in cell viability	not toxic	killed by the variants	increased the number of foci
Variant 16: cell penetrating anti-DNA humanized di-scFv, SEQ ID NO: 44 (protein, Variant 16) scFv: DIQMTQSPSSLSASVGDRVTITCRASKTVSTSSYSYMHWYQQKPGKAPKLLIKYASYLESGVPSRFSGSGSGTDFTLTISSLQPEDFATYYCQHSREFPWTFGQGTKVEIKRADAAPGGGGSGGGGSGGGGSEVQLVESGGGLVQPGGSLRLSCAASGFTFSNYGMHWVRQAPGKGLEWVSYISSGSSTIYYADSVKGRFTISRDNAKNSLYLQMNSLRAEDTAVYYCARRGLLLDYWGQGTTVTVSSASTKGPSVFPLAPLESSGSDIQMTQSPSSLSASVGDRVTITCRASKTVSTSSYSYMHWYQQKPGKAPKLLIKYASYLESGVPSRFSGSGSGTDFTLTISSLQPEDFATYYCQHSREFPWTFGQGTKVEIKRADAAPGGGGSGGGGSGGGGSEVQLVESGGGLVQPGGSLRLSCAASGFTFSNYGMHWVRQAPGKGLEWVSYISSGSSTIYYADSVKGRFTISRDNAKNSLYLQMNSLRAEDTAVYYCARRGLLLDYWGQGTTVTVSS	–	–	reductions in cell viability	not toxic	killed by the variants	increased the number of foci
